Measurements from patent US20180016327A1 (Chugai, published 2018).
Numbering of substitutions follows the chain as printed.

B1: CFP0015 15L 91Q (antibody, V domains shown)
VH: QVQLLESGGGLVQPGGSLRLSCAASGFTFSSYAMSWVRQAPGKGLEWVSAISGSGGSTYYADSVKGRFTISRDNSKNTLYLQMNSLRAEDTAVYYCARGDQIWYDQWYYFDMWGQGTLVTVSS
VL: DIQMTQSPSSLSASVGDRVTITCRASQSIEDDLAWYQQKPGKAPKLLIYEASNLQSGVPSRFSGSGSGTDFTLTISSLQPEDFATYYCQQQDSSPLTFGQGTKVEIK
B2: CFP0015 15L 91R (antibody, V domains shown)
VH: B1 VH
VL: B1 VL with Q91R
B3: CFP0015 15L 91S (antibody, V domains shown)
VH: B1 VH
VL: B1 VL with Q91S
B4: CFP0015 15L 91T (antibody, V domains shown)
VH: B1 VH
VL: B1 VL with Q91T
B5: CFP0015 15L 92E (antibody, V domains shown)
VH: B1 VH
VL: B1 VL with Q91Y, D92E
B6: CFP0015 15L 92P (antibody, V domains shown)
VH: B1 VH
VL: B1 VL with Q91Y, D92P
B7: CFP0015 15L 92Q (antibody, V domains shown)
VH: B1 VH
VL: B1 VL with Q91Y, D92Q
B8: CFP0015 15L 92S (antibody, V domains shown)
VH: B1 VH
VL: B1 VL with Q91Y, D92S
B9: CFP0015 15L 92T (antibody, V domains shown)
VH: B1 VH
VL: B1 VL with Q91Y, D92T
B10: CFP0015 15L 93D (antibody, V domains shown)
VH: B1 VH
VL: B1 VL with Q91Y, S93D
B11: CFP0015 15L 93G (antibody, V domains shown)
VH: B1 VH
VL: B1 VL with Q91Y, S93G
B12: CFP0015 15L 93N (antibody, V domains shown)
VH: B1 VH
VL: B1 VL with Q91Y, S93N
B13: CFP0015 15L 93R (antibody, V domains shown)
VH: B1 VH
VL: B1 VL with Q91Y, S93R
B14: CFP0015 15L 94F (antibody, V domains shown)
VH: B1 VH
VL: B1 VL with Q91Y, S94F
B15: CFP0015 15L 94T (antibody, V domains shown)
VH: B1 VH
VL: B1 VL with Q91Y, S94T
B16: CFP0015 15L 94W (antibody, V domains shown)
VH: B1 VH
VL: B1 VL with Q91Y, S94W
B17: CFP0015 15L 94Y (antibody, V domains shown)
VH: B1 VH
VL: B1 VL with Q91Y, S94Y
B18: CFP0015 15L 96F (antibody, V domains shown)
VH: B1 VH
VL: B1 VL with Q91Y, L96F
B19: CFP0015 15L 96H (antibody, V domains shown)
VH: B1 VH
VL: B1 VL with Q91Y, L96H
B20: CFP0015 15L 96I (antibody, V domains shown)
VH: B1 VH
VL: B1 VL with Q91Y, L96I
B21: CFP0015 15L 96P (antibody, V domains shown)
VH: B1 VH
VL: B1 VL with Q91Y, L96P
B22: CFP0015 15L 96W (antibody, V domains shown)
VH: B1 VH
VL: B1 VL with Q91Y, L96W
B23: CFP0015 15L 96Y (antibody, V domains shown)
VH: B1 VH
VL: B1 VL with Q91Y, L96Y
B24: CFP0011 (antibody, V domains shown)
VH: QVQLVQSGAEVKKPGSSVKVSCKASGGTFSSYAISWVRQAPGQGLEWMGGIIPIFGTANYAQKFQGRVTITADESTSTAYMELSSLRSEDTAVYYCARDMSEFLGWSNYYSYPMDVWGQGTTVTVSS
VL: B1 VL with E50H, N53S, Q91S, S93N, L96Y
notes: IgG format
B25: CFP0011 11L 30A (antibody, V domains shown)
VH: B24 VH
VL: B1 VL with E30A, E50H, N53S, Q91S, S93N, L96Y
B26: CFP0011 11L 30D (antibody, V domains shown)
VH: B24 VH
VL: B1 VL with E30D, E50H, N53S, Q91S, S93N, L96Y
B27: CFP0011 11L 30H (antibody, V domains shown)
VH: B24 VH
VL: B1 VL with E30H, E50H, N53S, Q91S, S93N, L96Y
B28: CFP0011 11L 30S (antibody, V domains shown)
VH: B24 VH
VL: B1 VL with E30S, E50H, N53S, Q91S, S93N, L96Y
B29: CFP0011 11L 31A (antibody, V domains shown)
VH: B24 VH
VL: B1 VL with D31A, E50H, N53S, Q91S, S93N, L96Y
B30: CFP0011 11L 31H (antibody, V domains shown)
VH: B24 VH
VL: B1 VL with D31H, E50H, N53S, Q91S, S93N, L96Y
B31: CFP0011 11L 31N (antibody, V domains shown)
VH: B24 VH
VL: B1 VL with D31N, E50H, N53S, Q91S, S93N, L96Y
B32: CFP0011 11L 32N (antibody, V domains shown)
VH: B24 VH
VL: B1 VL with D32N, E50H, N53S, Q91S, S93N, L96Y

The binders below were run against T1, human C5 (human, UniProt P01031 19-673; P01031 678-1676, Beta and alpha chains are disulfide-linked and the protein is glycosylated.) (assay: Biacore, captured antibody, pH 7.4, 37 C;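 also: biacore binding response of anti-C5 antibody light chain variants captured on chip with human C5 injected, ACES running buffer containing 1.2 mM CaCl₂, parent light chain antibody set to 100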).
T1 construct: Either in-house recombinant C5 or plasma derived C5 (CALBIOCHEM) was used; also called recombinant human C5; plasma derived human C5

Going from B1 to B2, the “% binding (parent = 100)” value falls from 96.4% to 2.4%.

First: B3
Second: B4
The “% binding (parent = 100)” value of the first is lower: 27.3% for the first, 50.7% for the second.

First: B5
Second: B6
The “% binding (parent = 100)” value of the first is higher: 99.8% for the first, 21.7% for the second.

Going from B7 to B8, the “% binding (parent = 100)” value falls from 59.7% to 51.3%.

Compared with B9, B10 is lower in “% binding (parent = 100)” value: 74.1% for the first, 45.1% for the second.

First: B11
Second: B12
The “% binding (parent = 100)” value of the first is lower: 78.6% for the first, 80.4% for the second.

Going from B13 to B14, the “% binding (parent = 100)” value falls from 96% to 10.6%.

First: B15
Second: B16
The “% binding (parent = 100)” value of the first is higher: 53.1% for the first, 4.5% for the second.

First: B17
Second: B18
The “% binding (parent = 100)” value of the first is higher: 46.1% for the first, 11.8% for the second.

First: B19
Second: B20
The “% binding (parent = 100)” value of the first is lower: 50.7% for the first, 103% for the second.

Going from B21 to B22, the “% binding (parent = 100)” value falls from 49% to 3.6%.

Going from B23 to B24, the “% binding (parent = 100)” value rises from 7.5% to 100%.

First: B25
Second: B26
The “% binding (parent = 100)” value of the first is higher: 100% for the first, 71.4% for the second.

Going from B27 to B28, the “% binding (parent = 100)” value rises from 13.6% to 44.5%.

First: B29
Second: B30
The “% binding (parent = 100)” value of the first is higher: 112% for the first, 100% for the second.

Going from B31 to B32, the “% binding (parent = 100)” value falls from 125% to 3.6%.
